Laboratory results taken from patent US20120178908A1 (Novo Nordisk, published 2012).

T1: human fibrinogen (HCI-0150R, Haematologic Technologies) (human, UniProt P02671 20-629; P02675 31-491; P02679 27-437, limits assumed)
T1 construct: Chain composition is general knowledge
T1 sequence (looked up) 1: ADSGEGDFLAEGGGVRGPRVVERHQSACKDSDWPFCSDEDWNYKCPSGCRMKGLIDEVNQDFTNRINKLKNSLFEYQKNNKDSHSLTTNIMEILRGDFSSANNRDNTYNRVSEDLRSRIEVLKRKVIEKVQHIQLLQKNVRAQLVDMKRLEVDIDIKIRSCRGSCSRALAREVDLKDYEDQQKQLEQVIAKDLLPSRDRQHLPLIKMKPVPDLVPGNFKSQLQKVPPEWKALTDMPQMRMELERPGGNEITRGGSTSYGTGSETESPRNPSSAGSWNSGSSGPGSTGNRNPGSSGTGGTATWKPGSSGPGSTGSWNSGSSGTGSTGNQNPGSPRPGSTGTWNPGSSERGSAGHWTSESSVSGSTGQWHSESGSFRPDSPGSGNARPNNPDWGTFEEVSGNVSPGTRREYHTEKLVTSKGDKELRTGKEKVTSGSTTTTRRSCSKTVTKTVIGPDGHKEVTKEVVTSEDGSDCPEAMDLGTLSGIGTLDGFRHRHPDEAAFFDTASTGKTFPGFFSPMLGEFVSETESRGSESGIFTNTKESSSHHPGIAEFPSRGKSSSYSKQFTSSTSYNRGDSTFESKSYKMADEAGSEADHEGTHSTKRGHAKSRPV
T1 sequence (looked up) 2: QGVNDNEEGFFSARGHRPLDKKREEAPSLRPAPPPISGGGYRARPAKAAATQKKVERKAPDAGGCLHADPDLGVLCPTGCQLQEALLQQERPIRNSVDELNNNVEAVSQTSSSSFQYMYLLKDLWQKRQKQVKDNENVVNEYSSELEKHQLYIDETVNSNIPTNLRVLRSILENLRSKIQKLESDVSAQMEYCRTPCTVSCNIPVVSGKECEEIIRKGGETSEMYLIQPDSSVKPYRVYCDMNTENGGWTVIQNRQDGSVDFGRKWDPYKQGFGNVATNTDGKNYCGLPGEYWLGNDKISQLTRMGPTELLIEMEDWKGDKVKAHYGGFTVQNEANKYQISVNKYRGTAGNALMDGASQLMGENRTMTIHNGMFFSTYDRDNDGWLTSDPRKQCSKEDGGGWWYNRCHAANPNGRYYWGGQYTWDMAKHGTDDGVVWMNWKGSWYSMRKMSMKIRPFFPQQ
T1 sequence (looked up) 3: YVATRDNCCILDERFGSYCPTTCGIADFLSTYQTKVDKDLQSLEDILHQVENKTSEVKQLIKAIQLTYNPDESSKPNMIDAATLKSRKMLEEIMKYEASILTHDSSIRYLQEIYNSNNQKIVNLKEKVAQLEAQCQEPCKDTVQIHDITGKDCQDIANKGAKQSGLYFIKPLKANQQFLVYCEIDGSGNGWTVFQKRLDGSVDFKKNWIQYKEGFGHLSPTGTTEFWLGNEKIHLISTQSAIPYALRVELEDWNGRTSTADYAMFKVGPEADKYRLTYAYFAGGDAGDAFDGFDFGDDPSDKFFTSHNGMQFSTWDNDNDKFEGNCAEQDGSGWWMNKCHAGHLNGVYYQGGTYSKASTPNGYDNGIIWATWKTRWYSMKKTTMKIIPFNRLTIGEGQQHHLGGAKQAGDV

T2: hTLT-1 ECD-HPC4 S119A (human, UniProt Q86YW5 16-162)
T2 construct: As m27; also called Ala mutant 33
T2 chain: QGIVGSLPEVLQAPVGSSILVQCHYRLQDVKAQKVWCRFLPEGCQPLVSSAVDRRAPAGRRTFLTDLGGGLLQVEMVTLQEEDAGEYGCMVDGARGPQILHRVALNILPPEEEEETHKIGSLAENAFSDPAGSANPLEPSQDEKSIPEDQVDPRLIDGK

T3: hTLT-1 ECD-HPC4 M91A (human, UniProt Q86YW5 16-162)
T3 construct: As m27; also called Ala mutant 24
T3 chain: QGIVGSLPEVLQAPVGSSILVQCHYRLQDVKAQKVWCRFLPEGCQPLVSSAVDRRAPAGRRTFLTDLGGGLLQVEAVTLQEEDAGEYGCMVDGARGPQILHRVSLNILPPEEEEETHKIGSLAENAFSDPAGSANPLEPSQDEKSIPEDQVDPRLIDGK

T4: hTLT-1 ECD-HPC4 R117A (human, UniProt Q86YW5 16-162)
T4 construct: As m27; also called Ala mutant 32
T4 chain: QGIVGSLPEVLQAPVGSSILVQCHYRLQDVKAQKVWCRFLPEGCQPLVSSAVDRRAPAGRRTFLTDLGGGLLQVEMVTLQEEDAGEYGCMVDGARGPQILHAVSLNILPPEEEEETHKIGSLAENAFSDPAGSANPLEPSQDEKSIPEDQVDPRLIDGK

T5: hTLT-1 ECD-HPC4 F54A (human, UniProt Q86YW5 16-162)
T5 construct: As m27; also called Ala mutant 12
T5 chain: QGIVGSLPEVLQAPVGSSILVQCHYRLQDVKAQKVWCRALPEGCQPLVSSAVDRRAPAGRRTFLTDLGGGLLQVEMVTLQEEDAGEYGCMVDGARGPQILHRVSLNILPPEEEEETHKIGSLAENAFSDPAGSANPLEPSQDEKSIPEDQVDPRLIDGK

B1: TLT1 (human TLT-1, reagent of the SPR studies, source NN) (receptor)
chain: QGIVGSLPEVLQAPVGSSILVQCHYRLQDVKAQKVWCRFLPEGCQPLVSSAVDRRAPAGRRTFLTDLGGGLLQVEMVTLQEEDAGEYGCMVDGARGPQILHRVSLNILPPEEEEETHKIGSLAENAFSDPAGSANPLEPSQDEKSIP

Experiments:
[1] = target: T1, human fibrinogen (HCI-0150R, …); experiment: SPR (Biacore T100), TLT1 immobilised on CM5, fibrinogen 200 nM to 0.2 nM as analyte
Experimental: (§1) Human TLT1 was immobilised to a level of approx 1000 RU on a CM5 chip (50 μg/ml diluted in Na-acetate, pH 4.0) using the standard procedure recommended by the supplier. Four-fold dilutions of human fibrinogen from 200 nM to 0.2 nM were tested for binding to the immobilized TLT1. Running and dilution buffer: 10 mM HEPES, 150 mM, 0.005% p20, pH 7.4. Regeneration was obtained by 10 mM Glycine, pH 1.7. Determination of kinetic and binding constants (kₒₙ, koff, KD) was obtained assuming a 1:1 interaction of TLT1 and fibrinogen using the Biacore T100 evaluation software.

[2] = target: T1, human fibrinogen (HCI-0150R, …); experiment: SPR (Biacore T100), TLT1 immobilised on CM5, fibrinogen as analyte
Experimental: as §1

[3] = target: B1; experiment: SPR (Biacore), mAb immobilised directly on CM5, TLT1 as analyte
Experimental: The mAbs of interest were either immobilized directly to a CM5 chip or by capture via a human Fc capture mAb immobilized to a CM5 chip.
Direct capture: The TLT-1 mAbs were immobilised to a level of approx 500-1000 RU on a CM5 chip (50 μg/ml diluted in Na-acetate, pH 4.0) using the standard procedure recommended by the supplier. Two-fold dilutions of TLT1 from 200 nM to 0.2 nM were tested for binding to the mABs. Running and dilution buffer: 10 mM HEPES, 150 mM, 0.005% p20, pH 7.4. Regeneration was obtained by 10 mM Glycine, pH 1.7.

[4] = target: T2, hTLT-1 ECD-HPC4 S119A; experiment: SPR (ProteOn), mAb captured by anti-hFc, 100 nM mutant, signal 10 s after injection normalised to captured mAb
Experimental: (§2) Each anti-body was diluted in 10 mM sodium acetate pH 5.0 to a concentration of […], and was immobilized to an individual flow cell at 30 μl/min for 240s. The antibodies were immobilized to flow cells A1-A6 (horizontal direction). After immobilization, the active sites on the flow cell were blocked with 1 M ethanolamine. The final immobilization level of capture antibody typically ranged from approximately 9,000 to 10,000 RU in one experiment. Capture of the anti-TLT1 antibodies 0197-0000-0023, 0197-0000-0051, 0197-0000-0061 and 0197-0000-0062 was conducted by diluting to […] into HBS-EP buffer (10 mM HEPES, 150 mM NaCl, 3 mM EDTA, 0.05% surfactant P20, pH 7.4) and injected at 30 μl/min for 60s in vertical direction, creating interspot reference points with only anti-human Fc antibodies. The final capture level of test antibodies typically ranged from approximately 200 to 300 RU in one experiment. Binding of wt or Ala mutant hTLT-1 ECD-HPC4 protein was conducted by injecting over parallel flow cells in horizontal direction to allow for comparative analyses of binding to different captured anti-TLT1 antibodies relative to binding to the interspot references. Each hTLT-1 ECD-HPC4 protein was diluted to 100 nM, based on the calculated average Mw, into HBS-EP buffer and injected at 30 μl/min for 240s. The GLM chip was regenerated after each injection cycle of analyte via one 18 s injection of 1 M Formic acid followed by a 18s injection of 50 mM NaOH at 100 μl/min. This regeneration step removed the anti-TLT1 antibody and any bound TLT1 from the immobilized capture antibody surface, and allowed for the subsequent binding of the next test sample pair.
(§3) Data analysis was performed using the ProteOn Manager™ Software. No significant non-specific binding to the interspot control surfaces was observed. Binding curves were processed by double referencing (subtraction of interspot control surface signals as well as blank buffer injections over captured anti-TLT1 antibodies). This allowed correction for instrument noise, bulk shift and drift during sample injections. Binding signal at 10 s after stop of analyte injection was normalized to level of captured anti-TLT1 antibody and presented as binding relative to wt hTLT-1 ECD-HPC4 protein.

[5] = target: T3, hTLT-1 ECD-HPC4 M91A; experiment: as above
Experimental: as §2, §3

[6] = target: T4, hTLT-1 ECD-HPC4 R117A; experiment: as above
Experimental: as §2, §3

[7] = target: T5, hTLT-1 ECD-HPC4 F54A; experiment: as above
Experimental: as §2, §3

Row | kon [1] [M⁻¹ s⁻¹] | Kd [2] [nM] | koff [2] [s⁻¹] | Kd [3] [nM] | koff [3] [s⁻¹] | kon [3] [M⁻¹ s⁻¹] | binding relative to wt hTLT-1 ECD-HPC4 [4] | binding relative to wt hTLT-1 ECD-HPC4 [5] | binding relative to wt hTLT-1 ECD-HPC4 [6] | binding relative to wt hTLT-1 ECD-HPC4 [7] | Binder
1 | 4170 | 94 | 0.000392 | – | – | – | – | – | – | – | B1
2 | – | – | – | 19.3 | 0.00472 | 245000 | < 0.6 fraction of wt binding | < 0.2 fraction of wt binding | < 0.2 fraction of wt binding | < 0.4 fraction of wt binding | mAb 0051 HC2; LC2 (antibody, V domains shown, also called 0197-0000-0051) VH: QVQLEQSGAELVRPGVSVKISCKGSGYTFTDYSMHWVKQSHAKSLEWIGVISTYYGDVRYNQKFKGKATMTVDKSSSTAYMALARLTSEDSAIYYCARAPMITTGAWFAYWGQGTLVTVSA VL: SIVMTQTPKFLLVSAGDRVTITCKASQSVSNDVAWYQQKPGQSPKLLINYASSRYTGIPDRFTGSGYGTDFTFTISTVQAEDLAVYFCQQDYSSPYTFGGGTKLEIER
